Measured values reported in patent US20240400652A1.
Like-named read-outs stand apart in the source and are kept apart here.

Legend:
[1] = target: Deglycosylated SARS-CoV-2 RBD (SARS-CoV-2) (UniProt P0DTC2)
[2] = target: SARS-CoV-2 Spike protein on pseudotyped virus (SARS-CoV-2) (UniProt P0DTC2); test: cell-based or functional assay
[3] = target: SARS-CoV-2 Spike protein on pseudotyped virus (SARS-CoV-2) (UniProt P0DTC2); test: cell-based or functional assay; remark: listed apart in the source

Q: What does the source list for “S306 G56A (as printed in Table 5) (antibody)”?
A: Kd [1]: 0.7 nM; koff [1]: 0.00024 s⁻¹; kon [1]: 340000 M⁻¹ s⁻¹

Q: What does the source list for S309 LS (antibody)?
A: IC50, neutralization of SARS-CoV-2pp, DBT-ACE2 cells [2]: 3.9 nM; maximum neutralization, VSV pseudotype, 293T ACE2 cells [2]: 34%; maximum neutralization, VSV pseudotype, A549-ACE2-TMPRSS2 clone 5 cells [2]: 65%; maximum neutralization, VSV pseudotype, A549-ACE2-TMPRSS2 clone 10 cells [2]: 42%; maximum neutralization, VSV pseudotype, Huh7 cells [2]: 78%; maximum neutralization, VSV pseudotype, MRC5-ACE2-TMPRSS2 cells [2]: 45%; maximum neutralization, VSV pseudotype, Vero E6-TMPRSS2 cells [2]: 96%; maximum neutralization, VSV pseudotype, Vero E6 cells [2]: > 99%; IC50, neutralization of SARS-CoV-2pp, DBT-ACE2 cells [3]: 3.82 nM

Q: Which EC50, neutralization of pseudotyped virus [2] does the source give for sotrovimab (antibody) here?
A: 0.0241 µg/mL
